How the values were obtained:
[1] = target: T1, ALK (anaplastic lymphoma kinase) receptor, full length, expressed on cells (human, UniProt Q9UM73 19-1620); assay: saturation binding of 35S-labeled PTN to 32D/ALK cells, non-linear regression
T1 construct: U87MG cells carry endogenous human ALK; also called PTNR; PTN receptor
Description: For this, ALK-negative mouse hematopoietic cell line 32D was used which grows in suspension culture and expressed the ALK protein in these cells. Also used was ^35S-labeled PTN from metabolic labeling experiments as a ligand for the receptor binding studies. Briefly, cell lysates were then prepared and a total of 3 mg of cellular proteins subjected to immunoprecipitation as described. (Souttou et al., 1997). For uncoupled antibodies, Sepharose-bound protein G (Gammabind plus, Amersham/Pharmacia) was used to precipitate immunocomplexes. Antibodies were anti-phosphotyrosine (agarose-coupled 4G10, 30 µl; UBI, Lake Placid NY), anti-PTNR (a cocktail of antibodies from Santa Cruz Biotechnology, Santa Cruz Calif. and from Accurate Chemicals, Westburg N.Y.), anti-IRS-1 (3 µg of rabbit IgG). Resulting precipitates were analyzed by SDS polyacrylamide gel electrophoresis. Experimental procedures for immunoblots for phosphotyrosine, IRS-1 (anti-IRS-1, Transduction Laboratories, Lexington Ky.), PLC-gamma (anti-PLC-gamma, UBI)and PI3-kinase (UBI) using unlabelled cells as described (Souttou et al., 1997).
Saturation binding of radiolabeled PTN to 32D/ALK (filled symbols) and 32D/control cells (open symbols) (FIG. 2b). Data were pooled from two independent experiments with triplicate repeat measurements of data points. […]

[2] = target: T1, ALK (anaplastic lymphoma kinase) …; assay: saturation binding of 35S-labeled PTN to 32D/ALK cells

T1 sequence (Q9UM73 other isoform, or with tags, fused parts or gaps limits assumed): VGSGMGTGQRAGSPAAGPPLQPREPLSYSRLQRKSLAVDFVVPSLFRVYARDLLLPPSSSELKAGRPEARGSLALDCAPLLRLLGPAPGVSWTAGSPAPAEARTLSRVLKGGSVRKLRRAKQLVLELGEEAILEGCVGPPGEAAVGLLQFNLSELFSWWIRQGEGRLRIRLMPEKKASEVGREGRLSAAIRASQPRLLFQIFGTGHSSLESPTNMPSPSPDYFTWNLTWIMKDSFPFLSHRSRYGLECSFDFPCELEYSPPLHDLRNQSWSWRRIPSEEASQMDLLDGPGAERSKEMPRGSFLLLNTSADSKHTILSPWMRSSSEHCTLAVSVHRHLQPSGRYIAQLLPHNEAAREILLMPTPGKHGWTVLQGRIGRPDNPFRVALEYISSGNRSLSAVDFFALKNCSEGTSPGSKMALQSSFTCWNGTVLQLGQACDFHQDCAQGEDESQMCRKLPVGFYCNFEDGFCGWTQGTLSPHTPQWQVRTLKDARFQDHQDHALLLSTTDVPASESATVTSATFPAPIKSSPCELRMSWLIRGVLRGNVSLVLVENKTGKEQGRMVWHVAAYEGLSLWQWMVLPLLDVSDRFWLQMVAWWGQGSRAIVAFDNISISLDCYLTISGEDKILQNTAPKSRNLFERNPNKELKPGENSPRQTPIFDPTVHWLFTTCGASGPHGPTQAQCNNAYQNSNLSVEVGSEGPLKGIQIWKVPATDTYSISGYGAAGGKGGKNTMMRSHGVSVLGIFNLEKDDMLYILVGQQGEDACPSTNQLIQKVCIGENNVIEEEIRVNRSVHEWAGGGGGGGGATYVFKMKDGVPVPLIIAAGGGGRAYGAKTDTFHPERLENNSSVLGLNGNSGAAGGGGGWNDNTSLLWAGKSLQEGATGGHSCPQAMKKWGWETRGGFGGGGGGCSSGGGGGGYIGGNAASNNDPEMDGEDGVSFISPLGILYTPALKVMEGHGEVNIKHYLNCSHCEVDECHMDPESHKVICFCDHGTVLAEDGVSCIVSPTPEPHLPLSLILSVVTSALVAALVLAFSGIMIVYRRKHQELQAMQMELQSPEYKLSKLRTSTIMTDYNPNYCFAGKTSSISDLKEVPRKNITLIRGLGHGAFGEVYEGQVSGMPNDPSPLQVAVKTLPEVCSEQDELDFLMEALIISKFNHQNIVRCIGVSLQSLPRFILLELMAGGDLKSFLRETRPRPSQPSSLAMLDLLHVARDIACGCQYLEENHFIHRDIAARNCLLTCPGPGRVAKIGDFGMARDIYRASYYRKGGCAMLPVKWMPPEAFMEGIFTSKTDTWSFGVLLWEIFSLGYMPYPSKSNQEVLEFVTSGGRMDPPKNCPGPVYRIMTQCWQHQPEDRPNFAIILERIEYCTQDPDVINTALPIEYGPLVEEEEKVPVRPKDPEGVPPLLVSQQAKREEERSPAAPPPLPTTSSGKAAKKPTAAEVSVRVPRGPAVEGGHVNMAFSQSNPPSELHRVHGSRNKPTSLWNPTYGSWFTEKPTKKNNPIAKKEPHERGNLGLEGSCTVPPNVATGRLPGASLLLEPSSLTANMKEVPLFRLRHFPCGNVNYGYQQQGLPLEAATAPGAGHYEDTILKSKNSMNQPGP

Kd [1]: 0.032 nM
Kd [2]: 0.03 to 0.04 nM
B1: pleiotrophin (PTN), purified from the culture supernatant of cells transfected with the human PTN cDNA (ligand, UniProt P21246 33-168, looked up)
chain: GKKEKPEKKVKKSDCGEWQWSVCVPTSGDCGLGTREGTRTGAECKQTMKTQRCKIPCNWKKQFGAECKYQFQAWGECDLNTALKTRTGSLKRALHNAECQKTVTISKPCGKLTKPKPQAESKKKKKEGKKQEKMLD
notes: also called PTN ligand; radiolabeled PTN
